From patent publication US9289492B2, “Collecting ovarian cancer stem cells from ovarian cancer cells” (The General Hospital Corporation, priority 2007, dated 2016)
Where two headings read alike, the source gives them in different places.

How the values were obtained:
4306 cells = experiment: Hoechst 33342 side population flow cytometry with verapamil, 4306; type: cell-based, mouse; details: 4306, verapamil 25-50 μg/ml, Hoechst 33342 flow cytometry
Method: (§1) Flow cytometry was performed in the Department of Pathology and Center for Regenerative Medicine Flow Cytometry Laboratory according to their published protocols (36). Mouse and human ovarian cancer SP sorting and immunophenotyping were performed as described in Supporting Methods, which is published as supporting information on the PNAS web site.
(§2) SP cells were identified and electronically gated on a Digital Vantage cell sorter (Becton Dickinson) after excitation of the Hoechst dye with 150 mW of 350 nm UV light. SP fluorescence emissions were directed toward a 610-nm dichroic filter and captured simultaneously through both a blue (450-nm) band-pass and a red (675-nm) long-pass filter on a linearly amplified fluorescence scale.

MOVCAR 7 cells = experiment: Hoechst 33342 side population flow cytometry with verapamil, MOVCAR 7; type: cell-based, mouse; details: MOVCAR 7, verapamil 25-50 μg/ml, Hoechst 33342 flow cytometry
Method: as §1, §2

MOVCAR 7 SP cells = experiment: MTT proliferation assay, MOVCAR 7 SP cells; type: cell-based, mouse; details: for inhibition at 0.004 µM: Mus musculus, 4 nM drug, compared with vehicle-treated controls, read-out: inhibition (MTT growth inhibition)
Method: (§3) MTT assay was used to assess proliferation inhibition. MOVCAR 7 and 4306 cells were harvested, sorted for SPs and NSPs, and plated in the inner wells of 96-well plates at 1,000 cells per well in 200 μl of medium per well. […] At day 5 or 7 of incubation, cell viability was quantified by measuring mitochondrial activity (38) on an ELISA plate reader at an absorbance of 550 nm to generate an OD proportional to the relative abundance of live cells in a given well.
(§4) Statistical Analysis. In MTT assays, MIS-, doxorubicin-, and paclitaxel-treated and untreated samples were analyzed by using the univariant two-tailed Student t test, with P ≦0.05conferring statistical significance. All experiments were performed in triplicate. In ovarian somatic stem cell studies, all p-values were calculated with the use of two-tailed student's t-test. Differences with p-values less than 0.05 were considered significant.

BCRP1 transporter = target: T1, BCRP1 transporter (Homo sapiens, UniProt Q9UNQ0); details: reference 23; cited from earlier work
T1 sequence (Q9UNQ0 1-655): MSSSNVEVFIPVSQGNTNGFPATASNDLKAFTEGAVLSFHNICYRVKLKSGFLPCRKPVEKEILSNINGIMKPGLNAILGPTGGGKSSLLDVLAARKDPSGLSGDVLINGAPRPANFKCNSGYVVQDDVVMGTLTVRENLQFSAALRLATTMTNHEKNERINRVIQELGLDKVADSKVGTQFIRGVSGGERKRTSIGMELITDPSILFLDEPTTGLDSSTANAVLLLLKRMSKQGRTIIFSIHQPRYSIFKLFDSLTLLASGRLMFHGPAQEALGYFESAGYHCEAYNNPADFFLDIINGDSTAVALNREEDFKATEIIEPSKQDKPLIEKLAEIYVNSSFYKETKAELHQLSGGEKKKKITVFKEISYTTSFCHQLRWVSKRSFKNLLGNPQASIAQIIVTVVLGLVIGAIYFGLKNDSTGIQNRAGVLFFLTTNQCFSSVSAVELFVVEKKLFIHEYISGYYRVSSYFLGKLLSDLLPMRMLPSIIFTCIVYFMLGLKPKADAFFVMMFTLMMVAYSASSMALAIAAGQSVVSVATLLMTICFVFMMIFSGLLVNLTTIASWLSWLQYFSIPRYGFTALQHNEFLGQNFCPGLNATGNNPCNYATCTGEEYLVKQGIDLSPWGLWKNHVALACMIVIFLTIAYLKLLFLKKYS

MOVCAR 7 NSP cells = experiment: MTT proliferation assay, MOVCAR 7 NSP cells; type: cell-based, mouse; details: for inhibition at 0.004 µM: Mus musculus, read-out: inhibition (MTT growth inhibition)
Method: as §3, §4

4306 SP cells = experiment: MTT proliferation assay, 4306 SP cells; type: cell-based, mouse
Method: as §3, §4

MOVCAR 7 [1] = details: in vitro, reference 25; cited from earlier work
MOVCAR 7 [2] = details: in vivo, reference 25; cited from earlier work
OVCAR 8 cells = details: references 25, 35; cited from earlier work
[3] = test system: human anchorage-independent Mullerian tumors; details: soft agarose, reference 34; cited from earlier work
[4] = Organ culture bioassay for MIS; details: purified recombinant human MIS
Method: The human MIS gene was transfected into CHO cells, amplified, purified, and maintained in a dedicated facility in the Pediatric Surgical Research Laboratories for use in this study as described in ref.39. MIS levels were measured by using human MIS-specific ELISA (40). MIS was purified by a combination of lectin affinity chromatography and FPLC anion-exchange chromatography (39).

MOVCAR 8 cells = details: references 25, 35; cited from earlier work
[5] = 4 nM drug, versus vehicle-treated controls

COc1ccc(CCN(C)CCCC(C#N)(c2ccc(OC)c(OC)c2)C(C)C)cc1OC (stereo not drawn) [Verapamil, verapamil]
elimination of the SP (4306 cells): effectively eliminated the SP | elimination of the SP (MOVCAR 7 cells): effectively eliminated the SP

COc1cccc2c1C(=O)c1c(O)c3c(c(O)c1C2=O)C[C@@](O)(C(=O)CO)C[C@@H]3O[C@H]1C[C@H](N)[C@H](O)[C@H](C)O1 [doxorubicin]
inhibition at 0.004 µM (MOVCAR 7 SP cells; MOVCAR 7 SP cells): 30% | substrate of the BCRP1 transporter (BCRP1 transporter): is a substrate | inhibition at 0.004 µM (MOVCAR 7 NSP cells; [5]): 81%

CC(=O)O[C@H]1C(=O)[C@@]2(C)[C@H]([C@H](OC(=O)c3ccccc3)[C@]3(O)C[C@H](OC(=O)[C@H](O)[C@@H](NC(=O)c4ccccc4)c4ccccc4)C(C)=C1C3(C)C)[C@]1(OC(C)=O)CO[C@@H]1C[C@@H]2O [paclitaxel]
inhibition at 0.004 µM (MOVCAR 7 SP cells; MOVCAR 7 SP cells): 85% | inhibition (MTT growth inhibition) (MOVCAR 7 NSP cells; [5]): 88% | inhibition at 0.004 µM (MOVCAR 7 NSP cells; [5]): 83%

B1: MIS: Recombinant human Mullerian Inhibiting Substance protein (SEQ ID NO: 16), produced in CHO cells and purified (protein, listed as Homo sapiens)
chain: MRDLPLTSLALVLSALGALLGTEALRAEEPAVGTSGLIFREDLDWPPGSPQEPLCLVALGGDSNGSSSPLRVVGALSAYEQAFLGAVQRARWGPRDLATFGVCNTGDRQAALPSLRRLGAWLRDPGGQRLVVLHLEEVTWEPTPSLRFQEPPPGGAGPPELALLVLYPGPGPEVTVTRAGLPGAQSLCPSRDTRYLVLAVDRPAGAWRGSGLALTLQPRGEDSRLSTARLQALLFGDDHRCFTRMTPALLLLPRSEPAPLPAHGQLDTVPFPPPRPSAELEESPPSADPFLETLTRLVRALRVPPARASAPRLALDPDALAGFPQGLVNLSDPAALERLLDGEEPLLLLLRPTAATTGDPAPLHDPTSAPWATALARRVAAELQAAAAELRSLPGLPPATAPLLARLLALCPGGPGGLGDPLRALLLLKALQGLRVEWRGRDPRGPGRAQRSAGATAADGPCALRELSVDLRAERSVLIPETYQANNCQGVCGWPQSDRNPRYGNHVVLLLKMQARGAALARPPCCVPTAYAGKLLISLSEERISAHHVPNMVATECGCR
inhibition by MIS (MTT) (4306 SP cells; 4306 SP cells after sort 2, 10 μg/ml MIS): 60% | inhibition by MIS (MTT) (4306 SP cells; 4306 SP cells after sort 3, 10 μg/ml MIS, not significant): 17% | inhibition by MIS (MTT) (4306 SP cells; 4306 SP cells, first sort, 10 μg/ml MIS, vs. vehicle control): 37% | inhibition of MOVCAR 7 (MOVCAR 7 [1]): inhibit | inhibition of MOVCAR 7 (MOVCAR 7 [2]): inhibit | inhibition by MIS (MTT) (MOVCAR 7 SP cells; MOVCAR 7 SP cells after sort 2, 10 μg/ml MIS): 93% | inhibition by MIS (MTT) (MOVCAR 7 SP cells; MOVCAR 7 SP cells after sort 3, 10 μg/ml MIS): 94% | inhibition by MIS (MTT) (MOVCAR 7 SP cells; MOVCAR 7 SP cells, first sort, 10 μg/ml MIS, versus vehicle): 86% | inhibition of OVCAR 8 cells (OVCAR 8 cells): inhibits | inhibition of anchorage-independent tumors [3]: inhibits | regression in organ culture bioassay [4]: causes regression | inhibition by MIS (MTT) (MOVCAR 7 NSP cells; first sort, 10 μg/ml MIS, versus vehicle): 93% | inhibition of MOVCAR 8 cells (MOVCAR 8 cells): inhibits
